Numbered stars: 1 amine (or outer) side, 2 acyl side, 3 side chain; on linkers, the order of the positions; unused ones are H or OH. Bridge positions count the residues as written; N and C are the ends. Side chains are listed from the residue outwards. Ends that are not written are not given here. * marks the point of attachment. C20 diacid = O=C(O)CCCCCCCCCCCCCCCCCCC(=O)*; γGlu = O=C(O)[C@H](CCC(=O)[*:2])N[*:1]; AEEA = NCCOCCOCC(=O)O
T1: human amylin receptor (human, UniProt P30988 25-474; O60896 24-148, limits assumed)
T1 construct: whole, on cells; Used as cell membranes prepared from the Amylin 3(a)/CRE-luc BHK cells (Assay V); also called hAmylin-R; hAmylinR
T1 sequence (looked up) 1: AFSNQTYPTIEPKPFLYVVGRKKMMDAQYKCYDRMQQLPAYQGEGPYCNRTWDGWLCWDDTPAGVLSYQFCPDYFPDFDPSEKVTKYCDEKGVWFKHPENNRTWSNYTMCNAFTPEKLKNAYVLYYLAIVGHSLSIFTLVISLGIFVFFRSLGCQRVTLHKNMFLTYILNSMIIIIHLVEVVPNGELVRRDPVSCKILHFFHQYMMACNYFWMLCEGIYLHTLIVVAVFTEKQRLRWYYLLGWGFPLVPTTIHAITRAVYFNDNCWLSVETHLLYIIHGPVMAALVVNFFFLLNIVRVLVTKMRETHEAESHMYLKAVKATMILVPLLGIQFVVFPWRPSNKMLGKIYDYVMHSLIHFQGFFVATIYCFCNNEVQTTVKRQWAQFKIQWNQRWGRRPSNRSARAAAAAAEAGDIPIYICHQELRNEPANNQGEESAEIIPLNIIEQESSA
T1 sequence (looked up) 2: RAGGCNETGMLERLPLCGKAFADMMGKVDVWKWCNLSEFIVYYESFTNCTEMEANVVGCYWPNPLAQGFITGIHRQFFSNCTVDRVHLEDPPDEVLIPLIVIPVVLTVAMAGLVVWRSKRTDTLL

B1: N^α1-[(4S)-4-carboxy-4-(19-carboxynonadecanoylamino)butanoyl]-[Arg17,Pro21,Pro27,Pro31,Glu35]-h-amylin (peptide)
peptide: {C20 diacid-γGlu}-KCNTATCATQRLANFLRHSSPNFGAIPSSTPVGSETY-NH2
modifications: disulfide 2-7
SMILES: CC[C@H](C)[C@H](NC(=O)[C@H](C)NC(=O)CNC(=O)[C@H](Cc1ccccc1)NC(=O)[C@H](CC(N)=O)NC(=O)[C@@H]1CCCN1C(=O)[C@H](CO)NC(=O)[C@H](CO)NC(=O)[C@H](Cc1c[nH]cn1)NC(=O)[C@H](CCCNC(=N)N)NC(=O)[C@H](CC(C)C)NC(=O)[C@H](Cc1ccccc1)NC(=O)[C@H](CC(N)=O)NC(=O)[C@H](C)NC(=O)[C@H](CC(C)C)NC(=O)[C@H](CCCNC(=N)N)NC(=O)[C@H](CCC(N)=O)NC(=O)[C@@H](NC(=O)[C@H](C)NC(=O)[C@@H]1CSSC[C@H](NC(=O)[C@H](CCCCN)NC(=O)CC[C@H](NC(=O)CCCCCCCCCCCCCCCCCCC(=O)O)C(=O)O)C(=O)N[C@@H](CC(N)=O)C(=O)N[C@@H]([C@@H](C)O)C(=O)N[C@@H](C)C(=O)N[C@@H]([C@@H](C)O)C(=O)N1)[C@@H](C)O)C(=O)N1CCC[C@H]1C(=O)N[C@@H](CO)C(=O)N[C@@H](CO)C(=O)N[C@H](C(=O)N1CCC[C@H]1C(=O)N[C@H](C(=O)NCC(=O)N[C@@H](CO)C(=O)N[C@@H](CCC(=O)O)C(=O)N[C@H](C(=O)N[C@@H](Cc1ccc(O)cc1)C(N)=O)[C@@H](C)O)C(C)C)[C@@H](C)O
notes: also called compound 28
B2: N^α1-[(4S)-4-carboxy-4-(19-carboxynonadecanoylamino)butanoyl]-[His14,Arg17,Pro21,Pro27,Glu35]-h-amylin (peptide)
peptide: {C20 diacid-γGlu}-KCNTATCATQRLAHFLRHSSPNFGAIPSSTNVGSETY-NH2
modifications: disulfide 2-7
SMILES: CC[C@H](C)[C@H](NC(=O)[C@H](C)NC(=O)CNC(=O)[C@H](Cc1ccccc1)NC(=O)[C@H](CC(N)=O)NC(=O)[C@@H]1CCCN1C(=O)[C@H](CO)NC(=O)[C@H](CO)NC(=O)[C@H](Cc1c[nH]cn1)NC(=O)[C@H](CCCNC(=N)N)NC(=O)[C@H](CC(C)C)NC(=O)[C@H](Cc1ccccc1)NC(=O)[C@H](Cc1c[nH]cn1)NC(=O)[C@H](C)NC(=O)[C@H](CC(C)C)NC(=O)[C@H](CCCNC(=N)N)NC(=O)[C@H](CCC(N)=O)NC(=O)[C@@H](NC(=O)[C@H](C)NC(=O)[C@@H]1CSSC[C@H](NC(=O)[C@H](CCCCN)NC(=O)CC[C@H](NC(=O)CCCCCCCCCCCCCCCCCCC(=O)O)C(=O)O)C(=O)N[C@@H](CC(N)=O)C(=O)N[C@@H]([C@@H](C)O)C(=O)N[C@@H](C)C(=O)N[C@@H]([C@@H](C)O)C(=O)N1)[C@@H](C)O)C(=O)N1CCC[C@H]1C(=O)N[C@@H](CO)C(=O)N[C@@H](CO)C(=O)N[C@H](C(=O)N[C@@H](CC(N)=O)C(=O)N[C@H](C(=O)NCC(=O)N[C@@H](CO)C(=O)N[C@@H](CCC(=O)O)C(=O)N[C@H](C(=O)N[C@@H](Cc1ccc(O)cc1)C(N)=O)[C@@H](C)O)C(C)C)[C@@H](C)O
notes: also called compound 30
B3: N^α1-[(4S)-4-carboxy-4-(19-carboxynonadecanoylamino)butanoyl]-[Glu14,Arg17,Pro21,Pro27,Pro31]-h-amylin (peptide)
peptide: {C20 diacid-γGlu}-KCNTATCATQRLAEFLRHSSPNFGAIPSSTPVGSNTY-NH2
modifications: disulfide 2-7
SMILES: CC[C@H](C)[C@H](NC(=O)[C@H](C)NC(=O)CNC(=O)[C@H](Cc1ccccc1)NC(=O)[C@H](CC(N)=O)NC(=O)[C@@H]1CCCN1C(=O)[C@H](CO)NC(=O)[C@H](CO)NC(=O)[C@H](Cc1c[nH]cn1)NC(=O)[C@H](CCCNC(=N)N)NC(=O)[C@H](CC(C)C)NC(=O)[C@H](Cc1ccccc1)NC(=O)[C@H](CCC(=O)O)NC(=O)[C@H](C)NC(=O)[C@H](CC(C)C)NC(=O)[C@H](CCCNC(=N)N)NC(=O)[C@H](CCC(N)=O)NC(=O)[C@@H](NC(=O)[C@H](C)NC(=O)[C@@H]1CSSC[C@H](NC(=O)[C@H](CCCCN)NC(=O)CC[C@H](NC(=O)CCCCCCCCCCCCCCCCCCC(=O)O)C(=O)O)C(=O)N[C@@H](CC(N)=O)C(=O)N[C@@H]([C@@H](C)O)C(=O)N[C@@H](C)C(=O)N[C@@H]([C@@H](C)O)C(=O)N1)[C@@H](C)O)C(=O)N1CCC[C@H]1C(=O)N[C@@H](CO)C(=O)N[C@@H](CO)C(=O)N[C@H](C(=O)N1CCC[C@H]1C(=O)N[C@H](C(=O)NCC(=O)N[C@@H](CO)C(=O)N[C@@H](CC(N)=O)C(=O)N[C@H](C(=O)N[C@@H](Cc1ccc(O)cc1)C(N)=O)[C@@H](C)O)C(C)C)[C@@H](C)O
notes: also called compound 31
B4: N^α1-[(4S)-4-carboxy-4-(19-carboxynonadecanoylamino)butanoyl]-[Glu14,Arg17,Pro21,Pro27,Arg35]-h-amylin (peptide)
peptide: {C20 diacid-γGlu}-KCNTATCATQRLAEFLRHSSPNFGAIPSSTNVGSRTY-NH2
modifications: disulfide 2-7
SMILES: CC[C@H](C)[C@H](NC(=O)[C@H](C)NC(=O)CNC(=O)[C@H](Cc1ccccc1)NC(=O)[C@H](CC(N)=O)NC(=O)[C@@H]1CCCN1C(=O)[C@H](CO)NC(=O)[C@H](CO)NC(=O)[C@H](Cc1c[nH]cn1)NC(=O)[C@H](CCCNC(=N)N)NC(=O)[C@H](CC(C)C)NC(=O)[C@H](Cc1ccccc1)NC(=O)[C@H](CCC(=O)O)NC(=O)[C@H](C)NC(=O)[C@H](CC(C)C)NC(=O)[C@H](CCCNC(=N)N)NC(=O)[C@H](CCC(N)=O)NC(=O)[C@@H](NC(=O)[C@H](C)NC(=O)[C@@H]1CSSC[C@H](NC(=O)[C@H](CCCCN)NC(=O)CC[C@H](NC(=O)CCCCCCCCCCCCCCCCCCC(=O)O)C(=O)O)C(=O)N[C@@H](CC(N)=O)C(=O)N[C@@H]([C@@H](C)O)C(=O)N[C@@H](C)C(=O)N[C@@H]([C@@H](C)O)C(=O)N1)[C@@H](C)O)C(=O)N1CCC[C@H]1C(=O)N[C@@H](CO)C(=O)N[C@@H](CO)C(=O)N[C@H](C(=O)N[C@@H](CC(N)=O)C(=O)N[C@H](C(=O)NCC(=O)N[C@@H](CO)C(=O)N[C@@H](CCCNC(=N)N)C(=O)N[C@H](C(=O)N[C@@H](Cc1ccc(O)cc1)C(N)=O)[C@@H](C)O)C(C)C)[C@@H](C)O
notes: also called compound 16
B5: N^ε1-[2-[2-[2-[[2-[2-[2-[[(4S)-4-carboxy-4-(19-carboxynonadecanoylamino)butanoyl]amino]ethoxy]ethoxy]acetyl]amino]ethoxy]ethoxy]acetyl]-[Arg17,Pro21,Pro27,Glu35 … (peptide)
peptide: K([AEEA-AEEA-γGlu-C20 diacid])CNTATCATQRLANFLRHSSPNFGAIPSSTNVGSETY-NH2
modifications: disulfide 2-7; N-terminus assumed
SMILES: CC[C@H](C)[C@H](NC(=O)[C@H](C)NC(=O)CNC(=O)[C@H](Cc1ccccc1)NC(=O)[C@H](CC(N)=O)NC(=O)[C@@H]1CCCN1C(=O)[C@H](CO)NC(=O)[C@H](CO)NC(=O)[C@H](Cc1c[nH]cn1)NC(=O)[C@H](CCCNC(=N)N)NC(=O)[C@H](CC(C)C)NC(=O)[C@H](Cc1ccccc1)NC(=O)[C@H](CC(N)=O)NC(=O)[C@H](C)NC(=O)[C@H](CC(C)C)NC(=O)[C@H](CCCNC(=N)N)NC(=O)[C@H](CCC(N)=O)NC(=O)[C@@H](NC(=O)[C@H](C)NC(=O)[C@@H]1CSSC[C@H](NC(=O)[C@@H](N)CCCCNC(=O)COCCOCCNC(=O)COCCOCCNC(=O)CC[C@H](NC(=O)CCCCCCCCCCCCCCCCCCC(=O)O)C(=O)O)C(=O)N[C@@H](CC(N)=O)C(=O)N[C@@H]([C@@H](C)O)C(=O)N[C@@H](C)C(=O)N[C@@H]([C@@H](C)O)C(=O)N1)[C@@H](C)O)C(=O)N1CCC[C@H]1C(=O)N[C@@H](CO)C(=O)N[C@@H](CO)C(=O)N[C@H](C(=O)N[C@@H](CC(N)=O)C(=O)N[C@H](C(=O)NCC(=O)N[C@@H](CO)C(=O)N[C@@H](CCC(=O)O)C(=O)N[C@H](C(=O)N[C@@H](Cc1ccc(O)cc1)C(N)=O)[C@@H](C)O)C(C)C)[C@@H](C)O
notes: also called compound 25

Each binder was assayed against T1, human amylin receptor (assay: SPA competition vs 125I-rat amylin, membranes of amylin 3(a) receptor BHK cells (Assay V)).
Description: The binding assay was performed using scintillation proximity assay (SPA) beads (RPNQ0001) from PerkinElmer and cell membranes from the Amylin 3(a)/CRE-luc cells (as described in Assay (II)) were used. Membranes were prepared in the following way; the cells were rinsed with PBS and incubated with Versene for approximately 5 min before harvesting. The cells were flushed with PBS and the cell-suspension was centrifuged for 5 min at 1000 rpm. Cells were homogenized (ultrathurrax) in a buffer containing 20 mM Na-HEPES and 10 mM EDTA (pH 7.4) and centrifuged at 20.000 rpm for 15 min. The resulting pellet was resuspended, homogenized and centrifuged (20.000 rpm, 15 min) in a buffer containing 20 mM Na-HEPES and 0.1 mM EDTA (pH 7.4, buffer 2). The resulting pellet was resuspended in buffer 2 and protein concentration was measured (BCA protein Assay, Pierce). The homogenate was kept cold during the whole procedure. The membranes were kept at −80° C. until use. The assay was performed in a 384 well Optiplate (PerkinElmer) in a total volume of 40 ul. Membranes were mixed with SPA beads. Final concentration of membranes 35 ng/μL final and SPA beads was 0.05 mg/well. Test-compounds were dissolved in DMSO and further diluted in assay buffer (50 mM Hepes, pH 7.4, 1 mM CaCl2, 5 mM MgCl₂, 0.1% OA and 0.02% Tween20). […] The final mixture was incubated with shaking at 400 rpm for 120 min at 25° C. prior to centrifugation (1500 rpm, 10 min). Samples were analyzed on TopCounter™ (Packard). The IC₅₀ was calculated using (one site binding competition analysis) GraphPad Prism5 as a measure of receptor affinity.

Point of comparison: B3, IC50 0.204 nM. Against it:
- B1 — 3-fold higher, 0.61 nM
- B2 — 4.5-fold higher, 0.919 nM
- B4 — 4.4-fold higher, 0.894 nM
- B5 — 3.8-fold higher, 0.768 nM

Reference: US20140087995A1 (published 2014)
